Assay results: patent US20210388110A1 (published 2021)
Positions count from the first letter of the chain named.

B1: GCH054-G1dh/none-Hi-Kn010G3/L0212-k0 (antibody, human IgG1, kappa)
heavy: not shown
chain: EPKSSDKTHTCPPCPAPELLGGPSVFLFPPKPKDTLMISRTPEVTCVVVDVSHEDPEVKFNWYVDGVEVHNAKTKPREEQYNSTYRVVSVLTVLHQDWLNGKEYKCKVSNKALPAPIEKTISKAKGQPREPQVCTLPPSRDELTKNQVSLWCLVKGFYPSDIAVEWESNGQPENNYKTTPPVLDSDGSFFLYSKLTVDKSRWQQGNVFSCSVMHEALHNRYTQKSLSLSP
light: DIVMTQSPLSLPVTPGEPASISCRPSQSPVHSNRNTYLHWYQQKPGQAPRLLIYKVSNRFSGVPDRFSGSGSGTDFTLKISRVEAEDVGVYYCYQGTQVPYTFGQGTKLEIKRTVAAPSVFIFPPSDEQLKSGTASVVCLLNNFYPREAKVQWKVDNALQSGNSQESVTEQDSKDSTYSLSSTLTLSKADYEKHKVYACEVTHQGLSSPVTKSFNRGEC
notes: single-arm (one Fab)
B2: GCH066-G1dh/none-Hi-Kn010G3/L0000-k0 (antibody, human IgG1, kappa)
heavy: not shown
chain: B1 chain
light: B1 light with P25S, P29L, Y94G
notes: single-arm (one Fab)
B3: GCH054-G1dh/none-Hi-Kn010G3/L0262-k0 (antibody, human IgG1, kappa)
heavy: not shown
chain: B1 chain
light: B1 light with P25S, S28P, Y94A
notes: single-arm (one Fab)
B4: GCH054-G1dh/none-Hi-Kn010G3/TR01L018-k0 (antibody, human IgG1, kappa)
heavy: not shown
chain: B1 chain
light: B1 light with R24Q, P25A, Q27E, Q42L, A48S, R50Q, Y94G
notes: single-arm (one Fab)
B5: GCH094-G1dh/none-Hi-Kn010G3/L0201-k0 (antibody, human IgG1, kappa)
heavy: not shown
chain: B1 chain
light: B1 light with P25S, S28P, Y94G
notes: single-arm (one Fab)
B6: GCH060-G1dh/none-Hi-Kn010G3/L0200-k0 (antibody, human IgG1, kappa)
heavy: not shown
chain: B1 chain
light: B1 light with Y94G
notes: single-arm (one Fab)
B7: GCH065-G1dh/none-Hi-Kn010G3/L0000-k0 (antibody, human IgG1, kappa)
heavy: not shown
chain: B1 chain
light: B1 light with P25S, P29L, Y94G
notes: single-arm (one Fab)
B8: GCH054-G1dh/none-Hi-Kn010G3/L0246-k0 (antibody, human IgG1, kappa)
heavy: not shown
chain: B1 chain
light: B1 light with P25S, L38I, H39Q, Y94S
notes: single-arm (one Fab)
B9: GCH054-G1dh/none-Hi-Kn010G3/TR01L016-k0 (antibody, human IgG1, kappa)
heavy: not shown
chain: B1 chain
light: B1 light with P25S, Q42L, A48S, R50Q
notes: single-arm (one Fab)
B10: GCH062-G1dh/none-Hi-Kn010G3/L0000-k0 (antibody, human IgG1, kappa)
heavy: not shown
chain: B1 chain
light: B1 light with P25S, P29L, Y94G
notes: single-arm (one Fab)
B11: GCH054-G1dh/none-Hi-Kn010G3/L0215-k0 (antibody, human IgG1, kappa)
heavy: not shown
chain: B1 chain
light: B1 light with P25S, S28P, L38I, Y94G
notes: single-arm (one Fab)
B12: GCH056-G1dh/none-Hi-Kn010G3/L0201-k0 (antibody, human IgG1, kappa)
heavy: not shown
chain: B1 chain
light: B1 light with P25S, S28P, Y94G
notes: single-arm (one Fab)
B13: GCH054-G1dh/none-Hi-Kn010G3/TR01L015-k0 (antibody, human IgG1, kappa)
heavy: not shown
chain: B1 chain
light: B1 light with P25S, Q42L, A48S, R50Q, Y94G
notes: single-arm (one Fab)
B14: GCH065-G1dh/none-Hi-Kn010G3/L0272-k0 (antibody, human IgG1, kappa)
heavy: not shown
chain: B1 chain
light: B1 light with P25S, S28P, P29L, N35Q, Y94G
notes: single-arm (one Fab)
B15: GCH094-G1dh/none-Hi-Kn010G3/L0271-k0 (antibody, human IgG1, kappa)
heavy: not shown
chain: B1 chain
light: B1 light with P25S, S28P, N35Q, Y94G
notes: single-arm (one Fab)
B16: GCH065-G1dh/none-Hi-Kn010G3/L0201-k0 (antibody, human IgG1, kappa)
heavy: not shown
chain: B1 chain
light: B1 light with P25S, S28P, Y94G
notes: single-arm (one Fab)
B17: GCH054-G1dh/none-Hi-Kn010G3/L0249-k0 (antibody, human IgG1, kappa)
heavy: not shown
chain: B1 chain
light: B1 light with L38I, H39Q, Y94S
notes: single-arm (one Fab)
B18: GCH098-G1dh/none-Hi-Kn010G3/L0201-k0 (antibody, human IgG1, kappa)
heavy: not shown
chain: B1 chain
light: B1 light with P25S, S28P, Y94G
notes: single-arm (one Fab)
B19: GCH099-G1dh/none-Hi-Kn010G3/L0000-k0 (antibody, human IgG1, kappa)
heavy: not shown
chain: B1 chain
light: B1 light with P25S, P29L, Y94G
notes: single-arm (one Fab); printed with a small k in Hi-kn010G3
B20: GCH094-G1dh/none-Hi-Kn010G3/L0246-k0 (antibody, human IgG1, kappa)
heavy: not shown
chain: B1 chain
light: B1 light with P25S, L38I, H39Q, Y94S
notes: single-arm (one Fab)
B21: GCH065-G1dh/none-Hi-Kn010G3/L0011-k0 (antibody, human IgG1, kappa)
heavy: not shown
chain: B1 chain
light: B1 light with P25S, S28P, P29L, Y94G
notes: single-arm (one Fab)
B22: GCH099-G1dh/none-Hi-Kn010G3/L0011-k0 (antibody, human IgG1, kappa)
heavy: not shown
chain: B1 chain
light: B1 light with P25S, S28P, P29L, Y94G
notes: single-arm (one Fab)
B23: H0610-G1dh/none-Hi-Kn010G3/L0002-k0 (antibody, human IgG1, kappa)
heavy: not shown
chain: B1 chain
light: B1 light with P25A, P29L, Y94G
notes: single-arm (one Fab)
B24: GCH073-G1dh/none-Hi-Kn010G3/L0011-k0 (antibody, human IgG1, kappa)
heavy: not shown
chain: B1 chain
light: B1 light with P25S, S28P, P29L, Y94G
notes: single-arm (one Fab)
B25: GCH054-G1dh/none-Hi-Kn010G3/L0222-k0 (antibody, human IgG1, kappa)
heavy: not shown
chain: B1 chain
light: B1 light with P25S, L38I, H39Q
notes: single-arm (one Fab)
B26: GCH055-G1dh/none-Hi-Kn010G3/L0212-k0 (antibody, human IgG1, kappa)
heavy: not shown
chain: B1 chain
light: B1 light
notes: single-arm (one Fab)
B27: GCH057-G1dh/none-Hi-Kn010G3/L0215-k0 (antibody, human IgG1, kappa)
heavy: not shown
chain: B1 chain
light: B1 light with P25S, S28P, L38I, Y94G
notes: single-arm (one Fab)
B28: GCH094-G1dh/none-Hi-Kn010G3/L0011-k0 (antibody, human IgG1, kappa)
heavy: not shown
chain: B1 chain
light: B1 light with P25S, S28P, P29L, Y94G
notes: single-arm (one Fab)
B29: GCH056-G1dh/none-Hi-Kn010G3/L0262-k0 (antibody, human IgG1, kappa)
heavy: not shown
chain: B1 chain
light: B1 light with P25S, S28P, Y94A
notes: single-arm (one Fab)
B30: GCH055-G1dh/none-Hi-Kn010G3/L0215-k0 (antibody, human IgG1, kappa)
heavy: not shown
chain: B1 chain
light: B1 light with P25S, S28P, L38I, Y94G
notes: single-arm (one Fab)
B31: GCH094-G1dh/none-Hi-Kn010G3/L0272-k0 (antibody, human IgG1, kappa)
heavy: not shown
chain: B1 chain
light: B1 light with P25S, S28P, P29L, N35Q, Y94G
notes: single-arm (one Fab)
B32: GCH057-G1dh/none-Hi-Kn010G3/L0222-k0 (antibody, human IgG1, kappa)
heavy: not shown
chain: B1 chain
light: B1 light with P25S, L38I, H39Q
notes: single-arm (one Fab)
B33: GCH064-G1dh/none-Hi-Kn010G3/L0000-k0 (antibody, human IgG1, kappa)
heavy: not shown
chain: B1 chain
light: B1 light with P25S, P29L, Y94G
notes: single-arm (one Fab)
B34: GCH055-G1dh/none-Hi-Kn010G3/L0200-k0 (antibody, human IgG1, kappa)
heavy: not shown
chain: B1 chain
light: B1 light with Y94G
notes: single-arm (one Fab)
B35: GCH056-G1dh/none-Hi-Kn010G3/L0215-k0 (antibody, human IgG1, kappa)
heavy: not shown
chain: B1 chain
light: B1 light with P25S, S28P, L38I, Y94G
notes: single-arm (one Fab)
B36: GCH100-G1dh/none-Hi-Kn010G3/L0011-k0 (antibody, human IgG1, kappa)
heavy: not shown
chain: B1 chain
light: B1 light with P25S, S28P, P29L, Y94G
notes: single-arm (one Fab)
B37: GCH065-G1dh/none-Hi-Kn010G3/L0262-k0 (antibody, human IgG1, kappa)
heavy: not shown
chain: B1 chain
light: B1 light with P25S, S28P, Y94A
notes: single-arm (one Fab)
B38: GCH073-G1dh/none-Hi-Kn010G3/L0201-k0 (antibody, human IgG1, kappa)
heavy: not shown
chain: B1 chain
light: B1 light with P25S, S28P, Y94G
notes: single-arm (one Fab)
B39: GCH099-G1dh/none-Hi-Kn010G3/L0201-k0 (antibody, human IgG1, kappa)
heavy: not shown
chain: B1 chain
light: B1 light with P25S, S28P, Y94G
notes: single-arm (one Fab)
B40: GCH073-G1dh/none-Hi-Kn010G3/L0000-k0 (antibody, human IgG1, kappa)
heavy: not shown
chain: B1 chain
light: B1 light with P25S, P29L, Y94G
notes: single-arm (one Fab)
B41: GCH055-G1dh/none-Hi-Kn010G3/L0222-k0 (antibody, human IgG1, kappa)
heavy: not shown
chain: B1 chain
light: B1 light with P25S, L38I, H39Q
notes: single-arm (one Fab)
B42: GCH098-G1dh/none-Hi-Kn010G3/L0000-k0 (antibody, human IgG1, kappa)
heavy: not shown
chain: B1 chain
light: B1 light with P25S, P29L, Y94G
notes: single-arm (one Fab)
B43: GCH098-G1dh/none-Hi-Kn010G3/L0011-k0 (antibody, human IgG1, kappa)
heavy: not shown
chain: B1 chain
light: B1 light with P25S, S28P, P29L, Y94G
notes: single-arm (one Fab)
B44: GCH100-G1dh/none-Hi-Kn010G3/L0201-k0 (antibody, human IgG1, kappa)
heavy: not shown
chain: B1 chain
light: B1 light with P25S, S28P, Y94G
notes: single-arm (one Fab)
B45: GCH094-G1dh/none-Hi-Kn010G3/L0270-k0 (antibody, human IgG1, kappa)
heavy: not shown
chain: B1 chain
light: B1 light with P25S, P29L, N35Q, Y94G
notes: single-arm (one Fab)
B46: GCH054-G1dh/none-Hi-Kn010G3/TR01L019-k0 (antibody, human IgG1, kappa)
heavy: not shown
chain: B1 chain
light: B1 light with R24Q, P25A, Q27E, Q42L, A48S, R50Q
notes: single-arm (one Fab)
B47: GCH060-G1dh/none-Hi-Kn010G3/L0222-k0 (antibody, human IgG1, kappa)
heavy: not shown
chain: B1 chain
light: B1 light with P25S, L38I, H39Q
notes: single-arm (one Fab)

molecular target: T1, soluble human GPC3 (human, UniProt P51654 25-563, limits assumed); experiment: SPR (Biacore), soluble human GPC3
T1 construct: soluble human GPC3 as analyte; also called glypican 3
T1 sequence (P51654 other isoform, or with tags, fused parts or gaps limits assumed, form in doubt): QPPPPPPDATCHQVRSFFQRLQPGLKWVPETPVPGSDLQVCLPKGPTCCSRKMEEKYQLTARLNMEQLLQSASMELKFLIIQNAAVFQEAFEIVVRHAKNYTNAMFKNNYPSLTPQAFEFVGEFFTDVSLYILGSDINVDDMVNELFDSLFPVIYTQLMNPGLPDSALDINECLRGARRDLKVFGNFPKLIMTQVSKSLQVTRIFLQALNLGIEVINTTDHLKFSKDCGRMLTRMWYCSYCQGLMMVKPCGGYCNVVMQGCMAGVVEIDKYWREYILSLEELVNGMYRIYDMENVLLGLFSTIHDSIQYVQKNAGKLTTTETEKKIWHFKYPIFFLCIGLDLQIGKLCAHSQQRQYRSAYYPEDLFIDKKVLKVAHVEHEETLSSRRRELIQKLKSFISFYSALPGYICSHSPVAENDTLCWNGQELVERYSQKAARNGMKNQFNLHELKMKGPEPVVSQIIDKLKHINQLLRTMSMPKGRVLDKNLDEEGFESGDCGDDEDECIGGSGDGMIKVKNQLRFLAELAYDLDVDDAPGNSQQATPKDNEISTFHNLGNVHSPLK

Kd [nM]	Binder
0.517	B1
4.29	B2
0.000525	B3
2.59	B4
1.17	B5
1.34	B6
1.41	B7
0.0315	B8
0.763	B9
3.73	B10
1.62	B11
1.16	B12
2.45	B13
0.393	B14
0.692	B15
0.0774	B16
0.00361	B17
0.111	B18
4.24	B19
0.00412	B20
0.884	B21
2.78	B22
4.43	B23
0.91	B24

Kd [nM]	Binder
0.0315	B25
0.614	B26
1.83	B27
3.88	B28
0.0119	B29
1.52	B30
2.1	B31
0.00185	B32
4.14	B33
1.13	B34
1.59	B35
3.81	B36
0.0118	B37
0.035	B38
1.29	B39
2	B40
0.0039	B41
1.77	B42
0.802	B43
1.37	B44
3.6	B45
0.871	B46
0.000642	B47
